24 molecules from US20190177417A1 (BIOATLA, published 2019) can be followed below.

Where a chain is given by its changes, count along the chain named. Names may count otherwise. Where two headings read alike, the source gives them in different places.

Test [1] deals with T1, Axl protein (human, UniProt P30530 26-451).
T1 construct: extracellular domain; also called human Axl; hAxl
T1 sequence (looked up): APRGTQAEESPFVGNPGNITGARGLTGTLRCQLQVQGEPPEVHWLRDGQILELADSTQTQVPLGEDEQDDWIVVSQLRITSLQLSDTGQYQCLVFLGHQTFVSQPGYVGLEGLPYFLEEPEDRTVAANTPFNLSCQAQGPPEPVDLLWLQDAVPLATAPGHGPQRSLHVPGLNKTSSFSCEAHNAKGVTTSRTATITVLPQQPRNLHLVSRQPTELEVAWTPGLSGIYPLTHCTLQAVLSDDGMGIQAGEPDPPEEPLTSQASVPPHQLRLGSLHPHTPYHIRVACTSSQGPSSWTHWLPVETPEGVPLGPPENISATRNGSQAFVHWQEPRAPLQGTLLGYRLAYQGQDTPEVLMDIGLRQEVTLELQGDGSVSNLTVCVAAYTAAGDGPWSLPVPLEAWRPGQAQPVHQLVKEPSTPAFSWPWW
Description: ELISA, 1:3 dilution, pH 6.0 over pH 7.4. (In general: ELISA stands for enzyme-linked immunosorbent assay.)

Test [2] addresses T1, Axl protein. Put plainly: ELISA, 1:9 dilution, pH 6.0 over pH 7.4.
Test [3] addresses T1, Axl protein. Description: ELISA, 1:3 dilution, pH 6.0 over pH 7.4. This is another data set of the same source.
The target in test [4] is T1, Axl protein. Description: ELISA, 1:9 dilution, pH 6.0 over pH 7.4. This is another data set of the same source.

B1: LC-V029D (antibody, V domains shown)
VH: EVQLVQSGAEVKKPGATVKISCKVSGYSFTGHTMNWIRQPPGKGLEWIGLIKPSNGGTSYNQKFKGRVTISADKSISTAYLQWSSLKASDTAMYYCAHGHYESYFAMDYWGQGTLVTVSS
VL: DIQMTQSPSSLSASVGDRVTITCKASQDDSSAVAWYQQKPGQAPRLLIYWASTRHTGVPSRFSGSGSGTEFTLTISSLQPDDFATYYCQEHFSTPLTFGQGTKVEIK
Take B1: in test [1], the “Affinity ELISA CPE mutant ratio (1:3, pH 6.0/7.4)” value amounted to 2.88 ratio. In addition, in test [2], the “Affinity ELISA CPE mutant ratio (1:9, pH 6.0/7.4)” value is 2.68 ratio.

B2: LC-W050F (antibody, V domains shown)
VH: B1 VH
VL: B1 VL with D29V, W50F
B2: in test [1], the “Affinity ELISA CPE mutant ratio (1:3, pH 6.0/7.4)” value was found to be 2.25 ratio. Also, the “Affinity ELISA CPE mutant ratio (1:9, pH 6.0/7.4)” value in test [2] amounted to 3.5 ratio.

B3: LC-F092E (antibody, V domains shown)
VH: B1 VH
VL: B1 VL with D29V, F92E
In the case of B3, the “Affinity ELISA CPE mutant ratio (1:3, pH 6.0/7.4)” value in test [1] amounted to 1.76 ratio. Further, in test [2], the “Affinity ELISA CPE mutant ratio (1:9, pH 6.0/7.4)” value was found to be 2 ratio.

B4: LC-V029W (antibody, V domains shown)
VH: B1 VH
VL: B1 VL with D29W
As to B4, in test [1], the “Affinity ELISA CPE mutant ratio (1:3, pH 6.0/7.4)” value turned out to be 2.31 ratio. Also, the “Affinity ELISA CPE mutant ratio (1:9, pH 6.0/7.4)” value in test [2] stood at 2.35 ratio.

B5: HC-G111H (antibody, V domains shown)
VH: B1 VH with G111H
VL: B1 VL with D29V
For B5, in test [3], the “Affinity ELISA CPE mutant ratio (1:3, pH 6.0/7.4)” value was 1.06 ratio. In addition, in test [4], the “Affinity ELISA CPE mutant ratio (1:9, pH 6.0/7.4)” value stood at 1.79 ratio.

B6: LC-A051I (antibody, V domains shown)
VH: B1 VH
VL: B1 VL with D29V, A51I
Consider B6, for which the “Affinity ELISA CPE mutant ratio (1:3, pH 6.0/7.4)” value in test [1] amounted to 2.24 ratio. Also, in test [2], the “Affinity ELISA CPE mutant ratio (1:9, pH 6.0/7.4)” value was found to be 2.14 ratio.

B7: LC-H091S (antibody, V domains shown)
VH: B1 VH
VL: B1 VL with D29V, H91S
B7: the “Affinity ELISA CPE mutant ratio (1:3, pH 6.0/7.4)” value in test [1] amounted to 1.76 ratio. In addition, in test [2], the “Affinity ELISA CPE mutant ratio (1:9, pH 6.0/7.4)” value was determined as 1.34 ratio.

B8: LC-A032M (antibody, V domains shown)
VH: B1 VH
VL: B1 VL with D29V, A32M
For the molecule B8, in test [1], the “Affinity ELISA CPE mutant ratio (1:3, pH 6.0/7.4)” value stood at 4.76 ratio. The “Affinity ELISA CPE mutant ratio (1:9, pH 6.0/7.4)” value in test [2] was 2.92 ratio.

B9: LC-A034Q (antibody, V domains shown)
VH: B1 VH
VL: B1 VL with D29V, A34Q
Consider B9, for which the “Affinity ELISA CPE mutant ratio (1:3, pH 6.0/7.4)” value in test [1] was 2 ratio. Moreover, the “Affinity ELISA CPE mutant ratio (1:9, pH 6.0/7.4)” value in test [2] came out at 1.41 ratio.

B10: HC-W110P (antibody, V domains shown)
VH: B1 VH with W110P
VL: B1 VL with D29V
Take B10: in test [3], the “Affinity ELISA CPE mutant ratio (1:3, pH 6.0/7.4)” value was 6.49 ratio. Further, in test [4], the “Affinity ELISA CPE mutant ratio (1:9, pH 6.0/7.4)” value stood at 2.15 ratio.

B11: LC-A034N (antibody, V domains shown)
VH: B1 VH
VL: B1 VL with D29V, A34N
In the case of B11, in test [1], the “Affinity ELISA CPE mutant ratio (1:3, pH 6.0/7.4)” value is 2.63 ratio. In addition, the “Affinity ELISA CPE mutant ratio (1:9, pH 6.0/7.4)” value in test [2] was 2.4 ratio.

B12: LC-F092D (antibody, V domains shown)
VH: B1 VH
VL: B1 VL with D29V, F92D
Turning to B12, the “Affinity ELISA CPE mutant ratio (1:3, pH 6.0/7.4)” value in test [1] stood at 2.97 ratio. In test [2], the “Affinity ELISA CPE mutant ratio (1:9, pH 6.0/7.4)” value stood at 2.94 ratio.

B13: LC-V029G (antibody, V domains shown)
VH: B1 VH
VL: B1 VL with D29G
With B13, in test [1], the “Affinity ELISA CPE mutant ratio (1:3, pH 6.0/7.4)” value stood at 1.94 ratio. Moreover, the “Affinity ELISA CPE mutant ratio (1:9, pH 6.0/7.4)” value in test [2] came to 1.8 ratio.

B14: LC-F092S (antibody, V domains shown)
VH: B1 VH
VL: B1 VL with D29V, F92S
Turning to B14, the “Affinity ELISA CPE mutant ratio (1:3, pH 6.0/7.4)” value in test [1] was found to be 3.18 ratio. Also, the “Affinity ELISA CPE mutant ratio (1:9, pH 6.0/7.4)” value in test [2] is 2.94 ratio.

B15: LC-A034D (antibody, V domains shown)
VH: B1 VH
VL: B1 VL with D29V, A34D
As for B15, the “Affinity ELISA CPE mutant ratio (1:3, pH 6.0/7.4)” value in test [1] came out at 3 ratio. Also, the “Affinity ELISA CPE mutant ratio (1:9, pH 6.0/7.4)” value in test [2] was determined as 2.6 ratio.

B16: LC-H091Y (antibody, V domains shown)
VH: B1 VH
VL: B1 VL with D29V, H91Y
Turning to B16, the “Affinity ELISA CPE mutant ratio (1:3, pH 6.0/7.4)” value in test [1] stood at 3.93 ratio. Besides, the “Affinity ELISA CPE mutant ratio (1:9, pH 6.0/7.4)” value in test [2] stood at 5.13 ratio.

B17: LC-V029N (antibody, V domains shown)
VH: B1 VH
VL: B1 VL with D29N
With B17, in test [1], the “Affinity ELISA CPE mutant ratio (1:3, pH 6.0/7.4)” value came to 2.6 ratio. Moreover, the “Affinity ELISA CPE mutant ratio (1:9, pH 6.0/7.4)” value in test [2] came to 2.65 ratio.

B18: LC-H091V (antibody, V domains shown)
VH: B1 VH
VL: B1 VL with D29V, H91V
For B18, the “Affinity ELISA CPE mutant ratio (1:3, pH 6.0/7.4)” value in test [1] came out at 4.13 ratio. Besides, the “Affinity ELISA CPE mutant ratio (1:9, pH 6.0/7.4)” value in test [2] came to 1.17 ratio.

B19: LC-A032L (antibody, V domains shown)
VH: B1 VH
VL: B1 VL with D29V, A32L
As to B19, the “Affinity ELISA CPE mutant ratio (1:3, pH 6.0/7.4)” value in test [1] turned out to be 1.98 ratio. Further, the “Affinity ELISA CPE mutant ratio (1:9, pH 6.0/7.4)” value in test [2] was 2.27 ratio.

B20: HC-W110A (antibody, V domains shown)
VH: B1 VH with W110A
VL: B1 VL with D29V
Turning to B20, in test [3], the “Affinity ELISA CPE mutant ratio (1:3, pH 6.0/7.4)” value was 7.91 ratio. Also, in test [4], the “Affinity ELISA CPE mutant ratio (1:9, pH 6.0/7.4)” value turned out to be 1.2 ratio.

B21: LC-F092C (antibody, V domains shown)
VH: B1 VH
VL: B1 VL with D29V, F92C
Turning to B21, the “Affinity ELISA CPE mutant ratio (1:3, pH 6.0/7.4)” value in test [1] was found to be 3.86 ratio. Further, the “Affinity ELISA CPE mutant ratio (1:9, pH 6.0/7.4)” value in test [2] was determined as 4.58 ratio.

B22: LC-F092N (antibody, V domains shown)
VH: B1 VH
VL: B1 VL with D29V, F92N
Turning to B22, the “Affinity ELISA CPE mutant ratio (1:3, pH 6.0/7.4)” value in test [1] stood at 1.93 ratio. Also, the “Affinity ELISA CPE mutant ratio (1:9, pH 6.0/7.4)” value in test [2] was 2 ratio.

B23: LC-F092G (antibody, V domains shown)
VH: B1 VH
VL: B1 VL with D29V, F92G
For B23, in test [1], the “Affinity ELISA CPE mutant ratio (1:3, pH 6.0/7.4)” value was determined as 3.69 ratio. Also, the “Affinity ELISA CPE mutant ratio (1:9, pH 6.0/7.4)” value in test [2] amounted to 4.76 ratio.

B24: LC-H091T (antibody, V domains shown)
VH: B1 VH
VL: B1 VL with D29V, H91T
Turning to B24, the “Affinity ELISA CPE mutant ratio (1:3, pH 6.0/7.4)” value in test [1] stood at 3.78 ratio. Moreover, the “Affinity ELISA CPE mutant ratio (1:9, pH 6.0/7.4)” value in test [2] is 3.78 ratio.
